Data published in the nanobody polyreactivity screen of Harvey et al. (2022).

Test: yeast display, Sf9 membrane polyspecificity reagent, FACS + sequencing; frameworks hold sequencing errors
In short: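 Genes from sorted yeast were amplified by colony PCR, read by MiSeq 2 × 250 sequencing and filtered on CDR length. These cells carried a synthetic nanobody library in Saccharomyces cerevisiae BJ5465 and were sorted by FACS into low and high (top ~1%) gates on anti-HA and streptavidin fluorescence. Polyreactivity is labelled according to the gate of origin.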

| Sequence | polyreactivity (PSR sort gate) |
| --- | --- |
| QVQLVESGGGLVQAGGSLRLSCASTGFTFYRYAMGWYRQARGKERELVAAITRSGSRTYYADSVKGRFTISRDNAKNTVYLQMNSLKPEDTAVYYCNAPRPASTDRRRYNYWGQGTQVTVSS | high polyreactivity |
| QVQLVESGGGLVQAGGSLRLSCASTGSTFTTYAMGWYRQPPGKERELVAAISSRSTRTYYADSVKGRFTISRDNAKNTVYLQMNSLKPEDTAVYYCAASVPWKYEYWGQGTQVTVSS | high polyreactivity |
| QVQLVESGGGLVQAGGSLRLSCATSGRTFRFNAMGWYRQAPGKEREFVAAITSGGGTYYADSVKGRFTISRDNAKNTLDLQMNSLKPEDTAVYYCAAPRQYYLMDYWGQGTQVTVSS | low polyreactivity |
| QVQLVESGGGLVQAGGSLRLSCATSGRTYVPAMGWYRQAPGKERALVAAITSSGITYYADSVKGRVTISRDNAKNTVYLQMNSLNPEDTAVYYCATSYSNRWGWKYNYWGQGTQVTVSS | high polyreactivity |
| QVQLVESGGGLVQAGGSLRLSCATSGYTFTRYAMGWYRQAPGKERELVASISKTGGITYYADSVKGRFTISRDNAKNTVYLQMNSLKPEDTAVYYCNAVSKRRWAKYDYWGQGTQVTVSS | high polyreactivity |
| QVQLVESGGGLVQAGGSLRLSCATYAMGWSRQAPGKERELVASIRSGSTYYADSVKGRFTISRDNAKNTVYLQMNSLKPEDTAVYYCAAYEIYYEFDSWGQGTQVTVSS | low polyreactivity |
| QVQLVESGGGLVQAGGSLRLSCDASAYIFVYNVMGWYRQAHGKERELVAAITSGGSTNYADSVKGRFTISRDNAKNTVYLQMNSLKPEDTAVYYCNAQFDLTFRGTGDYWGQGTQVTVSS | low polyreactivity |
| QVQLVESGGGLVQAGGSLRLSCDASGFIFDHNAMGWYRQAPGKERELVAAISWGYGSTYYADSVKGRFTISRDNAKNTVYLQMNRLKTEDTAVYYCAARAVRYYAWVRGGCTSFDYWGQGTQVTVSS | high polyreactivity |
| QVQLVESGGGLVQAGGSLRLSCDASGFIFLGNAMGWYRQAPGKERELVAAISSGGSTYADSVKGRFTISRDNAKNTVYLQMNSLKPEDTSVYYCAVERAFRAQNYHEYDYWGQGTQVTVSS | low polyreactivity |
| QVQLVESGGGLVQAGGSLRLSCDASGFTFIRNGMGWYRQAPGKERELVAAINSRGGNTYYADSVKGRFTISRDNAKNTVYLQMNSLKPEDTAVYYCNRVVQRWSTQYGYWGQGTQVTVSS | high polyreactivity |
| QVQLVESGGGLVQAGGSLRLSCDASGFTFTAYAMGSYRQAPGKERELVAAINWSGSRTYYADSVKGRFTISRDNAKNTVYLQMNSLNPEDTAVYYCAAGWTSSRYDYWGQGTQVTVSS | high polyreactivity |
| QVQLVESGGGLVQAGGSLRLSCDASGFTFYGNAMGWYRQAPGKERELVAAISGRGGSTYYADSVKGRFTISRDNAKNTVYLQMNSLKPEDTAVYYCAIYVSWPLYYYWGQGTQVTVSS | low polyreactivity |
| QVQLVESGGGLVQAGGSLRLSCDASGFTIYRYAMGWYRQAPGKERELVAAISSGGGSTYYADSVKGRFTISRDNAKNTVYLQMYILKPEDNAVYYCNAQGFIYYWLRYDYWGQGTQVTVSS | high polyreactivity |
| QVQLVESGGGLVQAGGSLRLSCDASGLIFGPYTMGWYRQAPGKERELVAAISYGGVSTYYADSVKGRFTISRDNAKNTVYLQMNSLNPEDTAVYYCARGDSTRVIRPSAREYDYWGQGTQVTVSS | low polyreactivity |
| QVQLVESGGGLVQAGGSLRLSCDASGLIFVDNAMGWYRQAPGKERELVAAIDSGGSTNYADSVKGRFTISRDNAKNTVYLQMNSLKPEDTAVYYCAANTYYWWGIMDYWGPGTQVTVSS | low polyreactivity |
| QVQLVESGGGLVQAGGSLRLSCDASGLIFWRNAMGWYRQAPGKERELVAGITSGGSTYYADSVKGRFTISRDNAKNTVYLQMNCLKPEDTAVYYCAKSTWQSYYYPRGSVYWGQGTQVTVSS | high polyreactivity |
| QVQLVESGGGLVQAGGSLRLSCDASGLIFYYYAMGWYRQAPGKERELVAAIRWSGGSTYYADSVKGRFTISRDNAKNTVYLQMNSLKPEDTAVYYCSEFYYWGQGTQVTVSS | high polyreactivity |
| QVQLVESGGGLVQAGGSLRLSCDASGNIFGLNAMGWYRQAPGKERELVSAISSGGSTNYADSVKGRFTISRDNAKNTVYLQMNSLKPEDTAVYYCAVQGSRYSYCYGYRFRTMDYWGQVTQVTVSS | high polyreactivity |
| QVQLVESGGGLVQAGGSLRLSCDASGRIFAGYAMGWYRQAPGKERELVASINWSGGSTYYADSVKGRFTISRDNAKNTVYLQMNSLKPEDTAVYYCAKEPTYRSGEAYVGLYYWGQGTQVTVSS | high polyreactivity |
| QVQLVESGGGLVQAGGSLRLSCDASGRIFAYYARGWYRQAPGKERELVAAITTNGGGTYYADSVKGRFTISRDNAKNTVYLQMNSLKPEDTGVYYCNAVKQRSSIFDYWGQGTQVTVSS | low polyreactivity |
| QVQLVESGGGLVQAGGSLRLSCDASGRIFSRNSMGWYRQAPGKERELVAANTWRGGSTYYADSVKGRFTISRDNAKNTVYLQLNSLKPEDPAVYYCNRDYRQYGYAYSGRYYWGQGTQVTVSS | high polyreactivity |
| QVQLVESGGGLVQAGGSLRLSCDASGRIISYNAMGWYRQAPGKERELVAAISWGGGSTYYADSVKGRFTISRDNAKNTVYLQMNSLKPEDTAVYYCAKGWYRIKRNDYWGQGTQVTVSS | low polyreactivity |

| Sequence | polyreactivity (PSR sort gate) |
| --- | --- |
| QVQLVESGGGLVQAGGSLRLSCDASGRILIGYTMGWYRQAPGKERELVARINYSGGSTYYADSVKGRFTISRDNAKNTVYLQMNSLKPEDTAVYYCDADVRRGYYTWPPRRVYYWGQGTQVTVSS | high polyreactivity |
| QVQLVESGGGLVQAGGSLRLSCDASGRLFYRNAMGWYRQAPGKDRELVASITSAGRTYYADSVKGRFTISRDNAKNTVYLQMNSLKPEDTAVYYCAVRGYAKSFSNAKYYYWGQGTQVTVSS | low polyreactivity |
| QVQLVESGGGLVQAGGSLRLSCDASGRMFALYAMGWYRQAPGKERELVAAITWRGGRTRYADSVKGRFTISRDNAKNTVYLQMTSLKPEDTAVYYCNKRLFASRYDYWGQGTQVTVSS | high polyreactivity |
| QVQLVESGGGLVQAGGSLRLSCDASGRTFLYYAMGWSRQAPGKERELVAAISSGGSTNYADSVKGRFTISRDNAKNTVYLQMNSLKPEDTAVYYCNADYTSRDTSDVIYEYDYWGQGTQVTVTS | low polyreactivity |
| QVQLVESGGGLVQAGGSLRLSCDASGRTFPINAMGWYRQAPGKERELVAAISSGDGITYYADSVKGRFTISRDNAKNTVYLQMNSLKPEDTAVYYCAKELSQGLRYDYWGQGTQVTVSS | high polyreactivity |
| QVQLVESGGGLVQAGGSLRLSCDASGRTFRYNAMGWYRQAPGKERELVAAISTRGGSTYYADSVKGRFTISRDNAKNTVYLQMNSLKPEDTAVYYCAADGRYAYGYNHWGQGTQVTVSS | low polyreactivity |
| QVQLVESGGGLVQAGGSLRLSCDASGRTFWRYAMGWYRQAPGKERELVATISSGGSTNYADSVKGRFTISRDNAKNTVYLQMNSLKPEDTAVYYCNAEYSYYDLLAYDYWGQGTQVTVSS | low polyreactivity |
| QVQLVESGGGLVQAGGSLRLSCDASGRTSVIYAMGWYRQAPGKERELVASIRRGGSTSYADSVKGRFTISRDNAKNTVYLQMNSLKPEDTAVYYCASTFKSGMDYWGQGTQVTVSS | high polyreactivity |
| QVQLVESGGGLVQAGGSLRLSCDASGSIFDHNSMGWYRQAPGKERELVAAISSNGVRTYYADSVKGRFTISRDNAKNTVYLQMNSLKTEDTAVYYCNAQRFVGLNVYGYDYWGQGTQVTVSS | high polyreactivity |
| QVQLVESGGGLVQAGGSLRLSCDASGSIFGKYTMGWYRQAPGKVRELVAAISKRGGSTRYADSVKGRFTISRDNAKNTVYLQMNSLKPEDTAVYYCAAYRYWMYRYQIVNYGYWGQGTQVTVSS | high polyreactivity |
| QVQLVESGGGLVQAGGSLRLSCDASGSIFKLNAMGWYRQAPGKERELVAAITSSGDSTYYADSVKGRFTISRDNAKNTVYLQMNSLKPEDTAVFYCNREDAGIMDYWGQGTHVTVSS | low polyreactivity |
| QVQLVESGGGLVQAGGSLRLSCDASGSIFSKYAMGWYRQAPGKERELVAAISWSGTSTYYADSVKGRFTISRDNAKNTVYLQMNSLKPEDTAVYYCAASSPRSLSLLGYWGQGTQVTVSS | low polyreactivity |
| QVQLVESGGGLVQAGGSLRLSCDASGSILGTYALGWSRQAPGKERELVAAISSSGRTSYADSVKGRFTISRDNAKNTVYLQMNSLKPEDTAVYYCIASNYIVLINDPDAAPWLYDYWGQGTQVTVSS | low polyreactivity |
| QVQLVESGGGLVQAGGSLRLSCDASGSTFGWYAMGWYRQAPGKERELVAAISKNGGRTYYADSVKGRFTISRDNAKNTVYLQMNSLKPVDTAVYYCNKVSKTVRDFDYWGQGTQVTVSS | high polyreactivity |
| QVQLVESGGGLVQAGGSLRLSCDASGSTFNANAMGWYRQAPWKERVLVAAISWNGGRTYYADSVKGRFTISRDNAKNTVYLQMNSLKPEDTAVYYCALVYTAGRNYYYWGQGTQVTVSS | high polyreactivity |
| QVQLVESGGGLVQAGGSLRLSCDASGSTFPFYAMARYRQAPRKERELVAAIRNTGNTYYADSVKGSFTISRDNAKNTAYLQMNSLNPEDPAVYYCAKALRSASDYWGQGTQVTVSS | low polyreactivity |
| QVQLVESGGGLVQAGGSLRLSCDASGSTFVRYVMRWYRHAPGKEMELVAAISRRGGSTYYADSVKGRFTISRDNAKNTVYLQMNSLKPEDTAVYYCARTVCYRTLLESDSCGQGTQVTVSS | high polyreactivity |
| QVQLVESGGGLVQAGGSLRLSCDASGSTFWFNDMGWYRQAPGKERELVAAIDWSDGSTYYADSVKGRFTISRDNAKNTVYLQMNSLKPEDTAVYFCAADHRYSARRSVPTLYDYWGQGTQVTVSS | low polyreactivity |
| QVQLVESGGGLVQAGGSLRLSCDASGSTIYPYAMGWYRQAPGKERELVAAISSGGRTYYADSVKGRFTISRDNAKTTVYLQMNSLKPEDTAGYYCATYYYGWYTIDFYYWGQGTQVTVSS | high polyreactivity |
| QVQLVESGGGLVQAGGSLRLSCDDSGRTFYPYAMGRYRHAPGKERELVAAISYRGGSTYYADSVKGRFTISRDNAKNTVYLQMNCLKPEDRAVYYCAKRGYASGSKWDYGYWGQGTQLTVSS | high polyreactivity |
| QVQLVESGGGLVQAGGSLRLSCGASGGFFYFNAMGRYRQAPGKEREVVASITWSGGNTYYADSVKGRFTISRDNAKHTVDLQMNSLTPEDTAVYYCAADTLEYRPTYDYWGQGTQVTVSS | low polyreactivity |
